Data taken from PMC6555819, “Comprehensive study of nuclear receptor DNA binding provides a revised framework for understanding receptor specificity”.

B1: NRC3_wobSeed113_DR4_G19A_o1 (dsDNA)
DNA 1: GCATATGTAGGTTAGCTGAGGTCATTCAGACTAGGCGCGATTGACAGCGTAGAATGAAGG
DNA 2: CCTTCATTCTACGCTGTCAATCGCGCCTAGTCTGAATGACCTCAGCTAACCTACATATGC
B2: NRC3_wobSeed93_DR3_G25A_o1 (dsDNA)
DNA 1: GCAGTCAAAGTTCATCTAGGTAACATAAGATATGCTGCGATTGACAGCGTAGAATGAAGG
DNA 2: CCTTCATTCTACGCTGTCAATCGCAGCATATCTTATGTTACCTAGATGAACTTTGACTGC
B3: NRC3_wobSeed40_DR1_G5C_o1 (dsDNA)
DNA 1: GCTACCCTAGGTCATGGGCCAGTATACCACGCGAACGCGATTGACAGCGTAGAATGAAGG
DNA 2: CCTTCATTCTACGCTGTCAATCGCGTTCGCGTGGTATACTGGCCCATGACCTAGGGTAGC
B4: NRC3_wobSeed136_DR5_G26C_o1 (dsDNA)
DNA 1: GCTAGCCTAGGTCATTCAGGGGCCACTATAGAAAGCGCGATTGACAGCGTAGAATGAAGG
DNA 2: CCTTCATTCTACGCTGTCAATCGCGCTTTCTATAGTGGCCCCTGAATGACCTAGGCTAGC
B5: NRC3_wobSeed76_DR3_o1 (dsDNA)
DNA 1: GCCCTACTGGGCCAAAAAGGTCATTGATGCCGATAAGCGATTGACAGCGTAGAATGAAGG
DNA 2: CCTTCATTCTACGCTGTCAATCGCTTATCGGCATCAATGACCTTTTTGGCCCAGTAGGGC
B6: NRC3_wobSeed137_DR5_T27C_o1 (dsDNA)
DNA 1: GCATATGTAGGTTACATCCGGGTCATCCAGGCTATGGCGATTGACAGCGTAGAATGAAGG
DNA 2: CCTTCATTCTACGCTGTCAATCGCCATAGCCTGGATGACCCGGATGTAACCTACATATGC
B7: NRC3_wobSeed133_DR5_G22A_o1 (dsDNA)
DNA 1: GCCGTCCAAGGTCAATGCTAGATCAGTGAAAGCATTGCGATTGACAGCGTAGAATGAAGG
DNA 2: CCTTCATTCTACGCTGTCAATCGCAATGCTTTCACTGATCTAGCATTGACCTTGGACGGC
B8: NRC3_wobSeed125_DR5_A30G_o1 (dsDNA)
DNA 1: GCCCTTACGGGTCACTGACAGGTTATAGCGTTTGGAGCGATTGACAGCGTAGAATGAAGG
DNA 2: CCTTCATTCTACGCTGTCAATCGCTCCAAACGCTATAACCTGTCAGTGACCCGTAAGGGC
B9: NRC3_wobSeed53_DR2_A22G_o1 (dsDNA)
DNA 1: GCCCTTACGGGTCACGAGGTTGTAGCACGACGAGCGGCGATTGACAGCGTAGAATGAAGG
DNA 2: CCTTCATTCTACGCTGTCAATCGCCGCTCGTCGTGCTACAACCTCGTGACCCGTAAGGGC
B10: NRC3_wobSeed27_DR1_G10T_o1 (dsDNA)
DNA 1: GCACTCGGATGACAAAGGTCAGAGCTACGCCAGTGAGCGATTGACAGCGTAGAATGAAGG
DNA 2: CCTTCATTCTACGCTGTCAATCGCTCACTGGCGTAGCTCTGACCTTTGTCATCCGAGTGC
B11: NRC3_wobSeed58_DR2_G21A_o1 (dsDNA)
DNA 1: GCATCGAAAGGTCGTGAGGTAAGTATACAGAAAGGCGCGATTGACAGCGTAGAATGAAGG
DNA 2: CCTTCATTCTACGCTGTCAATCGCGCCTTTCTGTATACTTACCTCACGACCTTTCGATGC
B12: NRC3_wobSeed27_DR1_A23G_o1 (dsDNA)
DNA 1: GCACTCGGAGGACAAAGGTCAGGGCTACGCCAGTGAGCGATTGACAGCGTAGAATGAAGG
DNA 2: CCTTCATTCTACGCTGTCAATCGCTCACTGGCGTAGCCCTGACCTTTGTCCTCCGAGTGC
B13: NRC3_wobSeed18_DR0_A4T_o1 (dsDNA)
DNA 1: GCGTTACAGGGTCAAGGCCAGAGTACGCGTATTGATGCGATTGACAGCGTAGAATGAAGG
DNA 2: CCTTCATTCTACGCTGTCAATCGCATCAATACGCGTACTCTGGCCTTGACCCTGTAACGC
B14: NRC3_wobSeed136_DR5_T27C_o1 (dsDNA)
DNA 1: GCTAGCCTAGGTCATTCAGGGGCCAGCATAGAAAGCGCGATTGACAGCGTAGAATGAAGG
DNA 2: CCTTCATTCTACGCTGTCAATCGCGCTTTCTATGCTGGCCCCTGAATGACCTAGGCTAGC
B15: NRC3_wobSeed37_DR1_G10A_o1 (dsDNA)
DNA 1: GCCGTCCAAAGTCAAAGGTCAGTGAAGAGATGACGGGCGATTGACAGCGTAGAATGAAGG
DNA 2: CCTTCATTCTACGCTGTCAATCGCCCGTCATCTCTTCACTGACCTTTGACTTTGGACGGC
B16: NRC3_wobSeed123_DR5_G26T_o1 (dsDNA)
DNA 1: GCCCTCGGAGGACAACAGGAGGTCATAGCTGCCAGAGCGATTGACAGCGTAGAATGAAGG
DNA 2: CCTTCATTCTACGCTGTCAATCGCTCTGGCAGCTATGACCTCCTGTTGTCCTCCGAGGGC
B17: NRC3_wobSeed2_DR0_T5G_o1 (dsDNA)
DNA 1: GCCCGAGTTGGTCAAGGTCACACACGCTATAGGTACGCGATTGACAGCGTAGAATGAAGG
DNA 2: CCTTCATTCTACGCTGTCAATCGCGTACCTATAGCGTGTGTGACCTTGACCAACTCGGGC
B18: NRC3_wobSeed61_DR2_A17G_o1 (dsDNA)
DNA 1: GCCGTCCAAGGTCAGCGGGTCAGTGAAAGCGACGTGGCGATTGACAGCGTAGAATGAAGG
DNA 2: CCTTCATTCTACGCTGTCAATCGCCACGTCGCTTTCACTGACCCGCTGACCTTGGACGGC
B19: NRC3_wobSeed124_DR5_T26A_o1 (dsDNA)
DNA 1: GCCCTACTGGGCCATTCAGAGGTCAATGATCATATGGCGATTGACAGCGTAGAATGAAGG
DNA 2: CCTTCATTCTACGCTGTCAATCGCCATATGATCATTGACCTCTGAATGGCCCAGTAGGGC
B20: NRC3_wobSeed99_DR4_C13A_o1 (dsDNA)
DNA 1: GCTCTCGGAGGAAACGAAAGGTCAGAGCTCGACATCGCGATTGACAGCGTAGAATGAAGG
DNA 2: CCTTCATTCTACGCTGTCAATCGCGATGTCGAGCTCTGACCTTTCGTTTCCTCCGAGAGC
B21: NRC3_wobSeed2_DR0_C23T_o1 (dsDNA)
DNA 1: GCCCTAGTTGGTCAAGGTCACATACGCTATAGGTACGCGATTGACAGCGTAGAATGAAGG
DNA 2: CCTTCATTCTACGCTGTCAATCGCGTACCTATAGCGTATGTGACCTTGACCAACTAGGGC
B22: NRC3_wobSeed4_DR0_G11T_o1 (dsDNA)
DNA 1: GCCCTACTGGTCCAAGGTCATTGATCAGTCAAAGCAGCGATTGACAGCGTAGAATGAAGG
DNA 2: CCTTCATTCTACGCTGTCAATCGCTGCTTTGACTGATCAATGACCTTGGACCAGTAGGGC
B23: NRC3_wobSeed82_DR3_G17C_o1 (dsDNA)
DNA 1: GCATCGAAAGGTCGACCAGGTGAGTATACACCGTTTGCGATTGACAGCGTAGAATGAAGG
DNA 2: CCTTCATTCTACGCTGTCAATCGCAAACGGTGTATACTCACCTGGTCGACCTTTCGATGC
B24: NRC3_wobSeed5_DR0_A25C_o1 (dsDNA)
DNA 1: GCCCTTACGGGTCAAGGTTATAGCCCGGGTGGTACGGCGATTGACAGCGTAGAATGAAGG
DNA 2: CCTTCATTCTACGCTGTCAATCGCCGTACCACCCGGGCTATAACCTTGACCCGTAAGGGC
B25: NRC3_wobSeed4_DR0_G11A_o1 (dsDNA)
DNA 1: GCCCTACTGGACCAAGGTCATTGATCAGTCAAAGCAGCGATTGACAGCGTAGAATGAAGG
DNA 2: CCTTCATTCTACGCTGTCAATCGCTGCTTTGACTGATCAATGACCTTGGTCCAGTAGGGC
B26: NRC3_wobSeed135_DR5_G26A_o1 (dsDNA)
DNA 1: GCCGAACTAGGTCATTGACAGGACAATGAATAGTAAGCGATTGACAGCGTAGAATGAAGG
DNA 2: CCTTCATTCTACGCTGTCAATCGCTTACTATTCATTGTCCTGTCAATGACCTAGTTCGGC
B27: NRC3_wobSeed134_DR5_G26T_o1 (dsDNA)
DNA 1: GCGCTGCTAGGTCAACTGATGGTCATCTAAAGCTCGGCGATTGACAGCGTAGAATGAAGG
DNA 2: CCTTCATTCTACGCTGTCAATCGCCGAGCTTTAGATGACCATCAGTTGACCTAGCAGCGC
B28: NRC3_wobSeed75_DR3_G16A_o1 (dsDNA)
DNA 1: GCTCTCGGAGGACACAAAGGTCAGAGCTTTCCAGAGGCGATTGACAGCGTAGAATGAAGG
DNA 2: CCTTCATTCTACGCTGTCAATCGCCTCTGGAAAGCTCTGACCTTTGTGTCCTCCGAGAGC
B29: NRC3_wobSeed124_DR5_A14G_o1 (dsDNA)
DNA 1: GCCCTACTGGGCCGTTCAGAGGTCATTGATCATATGGCGATTGACAGCGTAGAATGAAGG
DNA 2: CCTTCATTCTACGCTGTCAATCGCCATATGATCAATGACCTCTGAACGGCCCAGTAGGGC
B30: NRC3_wobSeed2_DR0_A24C_o1 (dsDNA)
DNA 1: GCCCTAGTTGGTCAAGGTCACACCCGCTATAGGTACGCGATTGACAGCGTAGAATGAAGG
DNA 2: CCTTCATTCTACGCTGTCAATCGCGTACCTATAGCGGGTGTGACCTTGACCAACTAGGGC
B31: NRC3_wobSeed34_DR1_T23C_o1 (dsDNA)
DNA 1: GCATCGAAAGGTCGAAGGTGAGCATACCCACCCGAAGCGATTGACAGCGTAGAATGAAGG
DNA 2: CCTTCATTCTACGCTGTCAATCGCTTCGGGTGGGTATGCTCACCTTCGACCTTTCGATGC
B32: NRC3_wobSeed20_DR0_A17T_o1 (dsDNA)
DNA 1: GCAGAATGAGGTTAAGTTCAGGGAAACAGAATACATGCGATTGACAGCGTAGAATGAAGG
DNA 2: CCTTCATTCTACGCTGTCAATCGCATGTATTCTGTTTCCCTGAACTTAACCTCATTCTGC
B33: NRC3_wobSeed141_DR5_G21C_o1 (dsDNA)
DNA 1: GCAGTCAAAGTTCAGGACGACGTAACGTAAAGCACGGCGATTGACAGCGTAGAATGAAGG
DNA 2: CCTTCATTCTACGCTGTCAATCGCCGTGCTTTACGTTACGTCGTCCTGAACTTTGACTGC

Target: LXRa:RXRa (Homo sapiens, UniProt Q13133;P19793 full;full)
Test: no ligand; PBM; 270 nM : 90 nM RXRa; PBS pH 7.4, 2% milk, 0.02% Triton X-100, 1 mM DTT, BSA, 0.4 mg/ml salmon testes DNA
Details: tags: His kept;His cleaved; copies: 1;1; label: surface-attached array probe
Outline: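 Probes were double-stranded and carried 34-nt variable regions with direct-repeat seeds, single-nucleotide variants, half-site ablations and random human genomic background sequences, printed on custom Agilent 4×180K protein-binding microarrays. Arrays were incubated 1 h with ligand-free nuclear receptor dimers in PBS pH 7.4, 2% milk, 0.02% Triton X-100, 1 mM DTT, 0.2 mg/mL BSA and 0.4 mg/ml salmon testes DNA. Antibodies against each partner (one per run) detected binding, and scanned fluorescence was regression-normalized. Binding z-scores use the random background probes as reference.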

Chain of LXRa:RXRa (Q13133 whole entry, chain 1 of 2): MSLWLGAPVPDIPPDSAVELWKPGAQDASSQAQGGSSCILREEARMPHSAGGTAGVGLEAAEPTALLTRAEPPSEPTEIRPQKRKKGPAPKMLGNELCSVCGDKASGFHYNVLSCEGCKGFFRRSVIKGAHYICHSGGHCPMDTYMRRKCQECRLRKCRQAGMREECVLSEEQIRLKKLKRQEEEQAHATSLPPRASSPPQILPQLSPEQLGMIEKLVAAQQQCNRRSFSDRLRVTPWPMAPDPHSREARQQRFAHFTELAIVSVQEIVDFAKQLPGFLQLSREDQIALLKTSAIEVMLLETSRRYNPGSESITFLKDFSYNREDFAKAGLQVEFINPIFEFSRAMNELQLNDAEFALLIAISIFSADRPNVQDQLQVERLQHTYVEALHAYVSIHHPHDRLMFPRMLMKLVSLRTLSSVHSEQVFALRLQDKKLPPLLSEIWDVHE
Chain of LXRa:RXRa (P19793 whole entry, chain 2 of 2): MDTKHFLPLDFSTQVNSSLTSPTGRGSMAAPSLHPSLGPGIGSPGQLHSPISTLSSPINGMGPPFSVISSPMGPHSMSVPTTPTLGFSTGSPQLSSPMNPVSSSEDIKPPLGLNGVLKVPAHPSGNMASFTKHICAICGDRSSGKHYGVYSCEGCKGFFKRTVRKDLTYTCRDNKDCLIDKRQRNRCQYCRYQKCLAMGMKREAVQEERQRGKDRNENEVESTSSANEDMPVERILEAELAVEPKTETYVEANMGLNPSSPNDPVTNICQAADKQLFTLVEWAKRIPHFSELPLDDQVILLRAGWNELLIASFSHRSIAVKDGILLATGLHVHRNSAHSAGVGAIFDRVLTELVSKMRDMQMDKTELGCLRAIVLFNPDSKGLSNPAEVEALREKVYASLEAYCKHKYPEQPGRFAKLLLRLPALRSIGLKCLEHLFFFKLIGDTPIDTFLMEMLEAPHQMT

Binder | binding signal
B1 | 6.64 PBM z-score against 500 random probes
B2 | 6.61 PBM z-score against 500 random probes
B3 | 6.6 PBM z-score against 500 random probes
B4 | 4.28 PBM z-score against 500 random probes
B5 | 4.25 PBM z-score against 500 random probes
B6 | 4.22 PBM z-score against 500 random probes
B7 | 4.19 PBM z-score against 500 random probes
B8 | 4.16 PBM z-score against 500 random probes
B9 | 4.14 PBM z-score against 500 random probes
B10 | 4.09 PBM z-score against 500 random probes
B11 | 4.07 PBM z-score against 500 random probes
B12 | 4.04 PBM z-score against 500 random probes
B13 | 4.02 PBM z-score against 500 random probes
B14 | 3.99 PBM z-score against 500 random probes
B15 | 3.96 PBM z-score against 500 random probes
B16 | 3.93 PBM z-score against 500 random probes
B17 | 3.9 PBM z-score against 500 random probes

Binder | binding signal
B18 | 3.86 PBM z-score against 500 random probes
B19 | 3.77 PBM z-score against 500 random probes
B20 | 3.75 PBM z-score against 500 random probes
B21 | 3.72 PBM z-score against 500 random probes
B22 | 3.7 PBM z-score against 500 random probes
B23 | 3.67 PBM z-score against 500 random probes
B24 | 3.64 PBM z-score against 500 random probes
B25 | 3.62 PBM z-score against 500 random probes
B26 | 3.59 PBM z-score against 500 random probes
B27 | 3.56 PBM z-score against 500 random probes
B28 | 3.54 PBM z-score against 500 random probes
B29 | 3.51 PBM z-score against 500 random probes
B30 | 3.48 PBM z-score against 500 random probes
B31 | 3.46 PBM z-score against 500 random probes
B32 | 3.43 PBM z-score against 500 random probes
B33 | 3.38 PBM z-score against 500 random probes
